The target in this experiment is T1, PHD finger of human UHRF1 (residues 299–366) (human, UniProt Q96T88 299-366).
T1 construct: UHRF1, human, PHD finger, residues 299–366; also called hPHD; UHRF1 PHD finger; source: recombinant, purified (glutathione Sepharose 4B, HiTrap Q HP, Superdex75); not shown: GST, N-terminal, cleaved; SUMO-1, N-terminal, cleaved
T1 sequence (looked up): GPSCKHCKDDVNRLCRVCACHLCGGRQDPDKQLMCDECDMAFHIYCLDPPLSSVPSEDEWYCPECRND
The experiment can be described thus: ITC; hPHD and PAF15_(2-11) or H3 peptides; VP-ITC; 10 mM HEPES-NaOH (pH 7.5), 150 mM NaCl, 0.25 mM TCEP; one-site model. The conditions noted are these: both partners purified. Background: In ITC the heat of successive injections is recorded.

B1: N-terminal histone H3 peptide (peptide)
chain: ARTKQTARKST
modifications: Unmodified free N-terminus assumed (initiator Met removed). Peptide limits are not printed in the supplied text (ITC in Supplementary Fig. 2d). Mature H3 residues 1-11 taken by convention from UHRF1 …
Consider B1, for which the Kd (commonly the constant that tells how readily two partners part at equilibrium) worked out at 1500 ± 100 nM.

B2: human PAF15 (residues 2–11) peptide (peptide, UniProt Q15004 2-11, looked up)
peptide: VRTKADSVPG
notes: PCNA-associated factor 15 (PAF15), human, residues 2–11; begins with 2VRTK5; also called hPAF15_(2-11); PAF15_(2-11); source: synthetic peptide (Toray Research Center)
B2 came in with a Kd of 2200 ± 300 nM.

B3: hPAF15_(2-11)-K5A peptide (peptide, UniProt Q15004 2-11, looked up)
peptide: VRTAADSVPG
notes: PCNA-associated factor 15 (PAF15), human, residues 2–11; also called PAF15 K5A
Regarding B3, the binding result is recorded as “binds”.

For the origin of these results see article PMC7060239, “Two distinct modes of DNMT1 recruitment ensure stable maintenance DNA methylation” (Nature Communications, 2020).
